# Data as given in patent US20120040403A1 (NANYANG TECHNOLOGICAL UNIVERSITY, published 2012).
# B1: tDGC mutant R158A (enzyme)
# chain: MGSSHHHHHHSSGLVPRGSHMKELEYMAYHDPLTGLPNRRYFFELGNRYLDLAKREGKKVFVLFVDLAGFKAINDTYGHLSGDEVLKTVSKRILDRVARSDVVARYGGDEFTILLYDMKEEYLKSLLERILSTFREPVRVENKHLSVTPNIGVARFPEDGENLEELLKVADMRMYKAKEMKVPYFSLS
# notes: Expressed from pET28b(+) with a (His)6 tag; Found as a monomer in solution; also called R158A mutant; mutant tDGC
# Molecular target: the molecule itself
# Assay: size-exclusion chromatography (Superdex 75)
# Method: Gel filtration was performed at 4° C. using the AKTA FPLC system equipped with a Superdex 75 HR 16/60 column (Amersham Biosciences). The buffer used for gel filtration is comprised of 50 mM Tris-Cl (pH 8.0), 300 mM NaCl, 5% Glycerol, 1 mM DTT. Fractions containing the recombinant protein were concentrated using Amicon concentrator (Millipore) to a final concentration of ca. 5 mg/ml as measured using Bradford assay. Concentrated proteins were stored in −80° C. degree after flash-freeze using liquid nitrogen. Mutant proteins were expressed, purified and stored following the same procedure. The molecular weight and oligomeric state of the protein was estimated based on the standard curve generated by using the standard proteins that include albumin, ovalbumin, chemotrypsinogen, RNase A. The final yield of the recombinant protein was 12-15 mg per liter culture for the wild type the mutant enzyme.
protein,measurement,value
B1,binding result,no binding
